Laboratory results reported in the Human Domainome abundance scans (Beltran et al. 2025).
± gives the uncertainty stated by the source.

B1: WW domain-containing transcription regulator protein 1, residues 116 to 162; numbered along this chain, Q9GZV5 (parent)
chain: QSYDVTDELPLPPGWEMTFTATGQRYFLNHIEKITTWQDPRKAMNQP
B2: SH3 and PX domain-containing protein 2B, residues 155 to 209; numbered along this chain, A1X283 (parent)
chain: EQYVVVANYQKQESSEISLSVGQVVDIIEKNESGWWFVSTAEEQGWVPATCLEGQ

Variants of: B1
Assay: abundance fitness (aPCA) (normalised: wild type 0, dead -1); higher = more abundant; growth selection in yeast, the domain comes from the species named
Settings: Homo sapiens

Variant	abundance fitness
M17K	-0.214 ± 0.047
T20R	-0.65 ± 0.041
L11P	-0.556 ± 0.044
L11A	-0.715 ± 0.038
L11Y	-0.493 ± 0.049
P13F	-0.093 ± 0.047
P13I	-0.18 ± 0.05
P13T	-0.072 ± 0.045
G23T	-0.918 ± 0.073
G23L	-1.07 ± 0.098
H30F	-0.484 ± 0.04
D39P	-0.588 ± 0.065
D39T	-0.761 ± 0.047
D39R	-0.452 ± 0.031
R41M	-0.703 ± 0.099
D4I	-0.189 ± 0.063
D4K	-0.014 ± 0.043
Y3M	0.182 ± 0.11
R25Y	-0.246 ± 0.065
Q1D	-0.005 ± 0.069
Q1H	-0.704 ± 0.32
Q1Y	-0.132 ± 0.13
S2W	-0.406 ± 0.062

Variant	abundance fitness
S2N	0.361 ± 0.081
S2T	-0.092 ± 0.05
A43G	-0.013 ± 0.031
A43N	0.046 ± 0.056
A43Y	-0.127 ± 0.044
D7W	-0.45 ± 0.047
D7F	-0.312 ± 0.033
D7R	-0.166 ± 0.041
D7Y	-0.268 ± 0.049
L9Q	0.022 ± 0.046
L9T	0.117 ± 0.045
L9P	-0.001 ± 0.047
W37E	-0.244 ± 0.032
W37A	-0.376 ± 0.028
W37C	-0.52 ± 0.065
W37L	-0.296 ± 0.026
W37K	-0.305 ± 0.026
V5P	-0.224 ± 0.048
V5Y	-0.354 ± 0.081
N45P	-0.135 ± 0.048
N45M	-0.023 ± 0.045
N45E	-0.125 ± 0.047
N45I	-0.084 ± 0.056

Variant	abundance fitness
Q38C	-0.085 ± 0.025
E32Q	0.033 ± 0.031
T6D	-0.104 ± 0.044
L28F	-0.335 ± 0.074
L28W	-0.426 ± 0.035
L28C	-0.16 ± 0.046
I31A	-0.174 ± 0.068
F27A	-0.777 ± 0.034
F27T	-0.793 ± 0.067
F27Y	-0.027 ± 0.03
Q24S	-0.174 ± 0.025
Q24N	-0.164 ± 0.026
Q24R	-0.222 ± 0.04
Q24Y	-0.424 ± 0.065
K33G	0.122 ± 0.024
K33C	-0.198 ± 0.038
E8S	-0.071 ± 0.039
E8F	-0.302 ± 0.066
E8G	-0.07 ± 0.03
M44F	0.068 ± 0.058
T35C	-0.236 ± 0.045
T35Q	-0.675 ± 0.069
T35N	-0.57 ± 0.039

Variant	abundance fitness
T35P	-0.899 ± 0.081
P10D	-0.083 ± 0.043
G14F	-0.534 ± 0.054
G14Q	-0.467 ± 0.048
G14W	-0.491 ± 0.036
G14C	-0.475 ± 0.042
P12Q	-0.494 ± 0.12
P12H	-0.907 ± 0.24
P12F	-0.997 ± 0.15
N29I	-0.949 ± 0.031
N29K	-0.826 ± 0.052
N29A	-0.919 ± 0.041
F19P	-0.597 ± 0.033
F19H	-0.385 ± 0.13
F19C	-0.274 ± 0.066
Y26R	-0.487 ± 0.044
Y26N	-0.412 ± 0.067
P40Q	-0.774 ± 0.053
P40S	-0.983 ± 0.064
Q46F	0.04 ± 0.025
Q46T	-0.058 ± 0.045
I34M	-0.15 ± 0.045

Variants of: B2
Assay: as above
Settings: Homo sapiens

Variant	abundance fitness
RQYVVVANYQKQESSEISLSVGQVVDIIEKNESGWWFVSTAEEQGWVPATCLEGQ [E1R]	-0.469 ± 0.19
KQYVVVANYQKQESSEISLSVGQVVDIIEKNESGWWFVSTAEEQGWVPATCLEGQ [E1K]	0.042 ± 0.16
AQYVVVANYQKQESSEISLSVGQVVDIIEKNESGWWFVSTAEEQGWVPATCLEGQ [E1A]	-0.364 ± 0.17
DQYVVVANYQKQESSEISLSVGQVVDIIEKNESGWWFVSTAEEQGWVPATCLEGQ [E1D]	-0.108 ± 0.14
LQYVVVANYQKQESSEISLSVGQVVDIIEKNESGWWFVSTAEEQGWVPATCLEGQ [E1L]	-0.001 ± 0.14
GQYVVVANYQKQESSEISLSVGQVVDIIEKNESGWWFVSTAEEQGWVPATCLEGQ [E1G]	-0.315 ± 0.098
MQYVVVANYQKQESSEISLSVGQVVDIIEKNESGWWFVSTAEEQGWVPATCLEGQ [E1M]	-0.329 ± 0.24
IQYVVVANYQKQESSEISLSVGQVVDIIEKNESGWWFVSTAEEQGWVPATCLEGQ [E1I]	-0.299 ± 0.33
VQYVVVANYQKQESSEISLSVGQVVDIIEKNESGWWFVSTAEEQGWVPATCLEGQ [E1V]	-0.035 ± 0.076
SQYVVVANYQKQESSEISLSVGQVVDIIEKNESGWWFVSTAEEQGWVPATCLEGQ [E1S]	-0.177 ± 0.31
EGYVVVANYQKQESSEISLSVGQVVDIIEKNESGWWFVSTAEEQGWVPATCLEGQ [Q2G]	-0.082 ± 0.081
EKYVVVANYQKQESSEISLSVGQVVDIIEKNESGWWFVSTAEEQGWVPATCLEGQ [Q2K]	-0.062 ± 0.16
ENYVVVANYQKQESSEISLSVGQVVDIIEKNESGWWFVSTAEEQGWVPATCLEGQ [Q2N]	0.13 ± 0.25
ECYVVVANYQKQESSEISLSVGQVVDIIEKNESGWWFVSTAEEQGWVPATCLEGQ [Q2C]	-0.086 ± 0.14
EEYVVVANYQKQESSEISLSVGQVVDIIEKNESGWWFVSTAEEQGWVPATCLEGQ [Q2E]	-0.328 ± 0.37
EDYVVVANYQKQESSEISLSVGQVVDIIEKNESGWWFVSTAEEQGWVPATCLEGQ [Q2D]	-0.378 ± 0.18
EPYVVVANYQKQESSEISLSVGQVVDIIEKNESGWWFVSTAEEQGWVPATCLEGQ [Q2P]	-0.068 ± 0.12
ELYVVVANYQKQESSEISLSVGQVVDIIEKNESGWWFVSTAEEQGWVPATCLEGQ [Q2L]	-0.189 ± 0.087
EHYVVVANYQKQESSEISLSVGQVVDIIEKNESGWWFVSTAEEQGWVPATCLEGQ [Q2H]	-0.178 ± 0.35
EIYVVVANYQKQESSEISLSVGQVVDIIEKNESGWWFVSTAEEQGWVPATCLEGQ [Q2I]	-0.347 ± 0.29
EFYVVVANYQKQESSEISLSVGQVVDIIEKNESGWWFVSTAEEQGWVPATCLEGQ [Q2F]	-0.185 ± 0.47
EAYVVVANYQKQESSEISLSVGQVVDIIEKNESGWWFVSTAEEQGWVPATCLEGQ [Q2A]	-0.247 ± 0.11
